Results on 22 sequences are retold here after a protein production outcome set (Wang et al. 2014).

The data set can be described thus: label from the status in PepcDB records.
As to “MQTFFQDTMATPLGELLIIADENNHLRAVEWREYEDGLFRSLNRSYRNDPFSLQSRHNPGGLTDSLQRYFDGELAIIDTLPVASVGTEFQQQVWRELRRIPCGEITTYGELATLLGRTGAARAVGMANGSNPISIVVPCHRVIGTGGALTGYAGGIHRKQWLLAHEGYLPHQNSLPL”, the protein production result is listed as “failed”. The entry for “MQTKKAFLYVFNTMSDWEYGYLIAELNSGRYFKKDLAPLKVITVGANKEMITTMGGLRIKPDISLDECTLESKDLLILPGGTTWSEEIHQPILERIGQALKIGTIVAAICGATDALANMGYLDTRKHTSNNLEYTKMVCPNYKGEKFYELGPAVSDANLVTASGIAPLEFAMEVLKKIDVFTLDALHSWYNLNKTHKPEYFFQLMNSINK” is “not failed”. For “MQTPSKKYVVDIWSDFVCPWCWIAKRRFENALNRSGMQDDVQVNVRAYRLAANQAPEPMIGALKRKLGNPASADSMMSTVSKYGRADGLDYRFDTMMFGDTADAHILVKAVEDTAVKKRLVEALYEQSTSHGRSLFDRSSLEAIAREVGVSDESIQLAWSSVELRNEMKDDESFAAQLGSGVPLFVFDSSFSVSGAQPDAVFLEALNKMVANSNPEDSSMMGQVCSIDGCKV” the value was “not failed”. For the sequence “MQTQIKVRGYHLDVYQHVNNARYLEFLEEARWDGLENSDSFQWMTAHNIAFVVVNININYRRPAVLSDLLTITSQLQQLNGKSGILSQVITLEPEGQVVADALITFVCIDLKTQKALALEGELREKLEQMVK”, the protein production entry was “not failed”.

Consider “MQTVLKKRKKSGYGYIPDIADIRDFSYTPEKSVIAALPPKVDLTPSFQVYDQGRIGSCTANALAAAIQFERIHDKQSPEFIPSRLFIYYNERKIEGHVNYDSGAMIRDGIKVLHKLGVCPEKEWPYGDTPADQKTEEFPPGAPASKKPSDQCYKEARNYKITEYSRVAQDIDHLKACLAAGSPFVFGFSVYNSWVGNNSLPVKIPLPTKNDKLEGGHAVLCVGYDDEIRHFRIRNSWGNNVGENGYFWMPYEYIRNRQLADDFWVIKTVRK”, for which the protein production result is reported as “failed”.

Consider “MQTVQALLTAAKVDGAKSPYDTIHIKVLYPAKNTDSNLEKSWGMLPIDTAQAPLPVMIFFNGFNCDAQKYQWLGIELAQTGLVVVMFNWVGESLPGLVSFTPGFEIEKRKREFYGTAPTASALPAILTTLAQLQREGILAGTLDLEKIILGGHSEGGRVAMENANPNFFPQVVASFAYGSHTAGAVMLGYKPNTILPLPDTLPRLVIGGTHDGVIASSSSHFGLNTKDATTPVIRTFQEAIMGGHENSYLLILRGANHFSIVDIVDSTLALPFKDIPATQPQEHFRLLLATIIHLFIDAHVRHQPEAFQKLEQL”, for which the protein production result is on record as “failed”. The entry for “MQTVRGWLTLPLALLIVLTGCMAVLSALVIEVQAGATSWIIGESHWSKAQQESVYWLERYLGSADPADLQAACRALEVPLGDRAARLAVDASPIDWAEVYAGLAAGRNAREDMPQMVRLYRYGQRLPYLGSAIALWKHTDGDILHLSLLADRAASAQATGTPDARALQSLRAELHLLDGRMRRDAAQFLTLLTRCARMLHDVMVTCSLATLLLVLSTCVLAIRRTRDYLMSHEGRFRTAFQHAALGMVKFDLSGRVLDANASLANILQYPPEALQACTLAEVMHPDDIVLDSRGLIDWPRLMQAGELRFLRSDGGVLWGRWSASLVEPGPQEPSLVLAVIEDVSQAHELADEVAYHARHDALTGLINRREIERRLQRLIDPPQSPQLCHALCFVDLDHFKLVNDTFGHAVGDKFLCHFADVITMQLRPGDWLGRLGGDEFAILLANTDLAHAHTLLERMHGVLGQPWSHQGGRPLTPSCSFGVVEIRQGADDVNLLMTAADLACHAAKEEGRNRIRSFGETDLAMARRRHDGGWISAVQQAIAEDRLLLYAQKIQVLSDPGRVQYEVLVRMRTRDGRVLSPGEFLPAVERYGLGRMVDAHVLETLCAQLSANPAHVASLDLCHVNLSAQSIAQRDFLDFVCALFERYPALVAKLCLEITETAVIGDLEHAQRFVQSVRARGCHVALDDFGSGLASFGYLKQFTVDVLKIDCGFVRNYAHDAVDRATVHSIAQVGLALGIEVVAEGVESEADIAGLREAGVGQVQGFSLHRPCPLDDLLHVSLPSLAAS” is “failed”; for “MQVKENKQLCLISLGCSKNLVDSEVMLGKLYNYTLTNDAKSADVILINTCGFIESAKQESIQTILNAAKDKKEGAILIASGCLSERYKDEIKELIPEVDIFTGVGDYDKIDIMIAKKQNQFSEQVFLSEHYNARIITGSSVHAYVKISEGCNQKCSFCAIPSFKGKLQSRELDSILKEVENLALKGYTDMTFIAQDSSSFLYDKGQKDGLIQLIRAIDKQQALKSARILYLYPSSTTLELIGAIESSPIFQNYFDMPIQHISDSMLKKMRRNSSQAHHLKLLDAMKQVKESFIRSTIIVGHPEENESEFEELSAFLDEFQFDRLNIFAFSAEENTHAYSLEKVPKKTINARIKALNKIALKHQNHSFKALLNKPIKALVENKEGEYFYKARDLRWAPEVDGEILINDSELTTPLKPGHYTIAPSEFKDNILLAKVLSPF” it is “failed”; for “MQVKTEEKSVNNKKLIPFWVIERALEGDIQAINKILKHYEGYIAKLSVRKMYDEYGCVHYCVDETLRRRLETKLIKTIIGFKIVRLEHHHHHH” it is “not failed”. As to “MQVQVSGKHVDVGEALRARVSDEIALSIGKYFDRGGAAEVVVSKEGYAFRVDCSVKLASGQQLISHGSGGDAHAAFDAALAKIDTRIRRYKRRLKSHSAAATAKQVENAAMFVLRAPESDDVDEDWDIEDDHPTGAPAAMVIAETQAAMKTMTVSMAVMELDLTAYPAIVFRNAAHGGISVVYRRPDGNIGWIDPERTKSNGHGSTAS”, the protein production entry was “failed”. The entry for “MQVTFHPRACRFLKTRKAEKPNNEPLYASTSNRETIGDTGMSNPWIAIGALAVVALAIPLTMMAVSSLLRPSVPEQGKRTTYESGEVPTGSSRQIKFNIQYYMVALLFVVFDIETVFIFPWTVIYSDAAAELGMTTALLPMVVFITILAIGLGWAWRNGAVQWVRSPRATKGADTYE” is “failed”; for “MQYANAYQAYQHNRVSVESPAKLIEMLYEGILRFSSQAKRCIENEDIEKKIYYINRVTDIFTELLNILDYEKGGEVAVYLTGLYTHQIKVLTQANVENDASKIDLVLNVARGLLEAWREIHSDELA” it is “failed”; for “MQYAYPLLAIFIWAGNTVINKLAVGAIFPAEIGFYRWLLAGLLFTPFMLKPVIKHWPEVRPNLWRIAILGVLGMAVYQSLAYFAASLTSATNMGIILSLMPLMSLAMAIAALGQRLTAGALVGAVLSFAGVLVVVSSGSLAALLQHGVNLGDAMMLVATLAYAIYSTLLKKWQLRLPPLVLLYLQVLVAVVVLLPLFLASPKVGPTLQNIPLVLYACLLASMLAPLAWMQAVVRLGPSRTTLFFNLLPLITALIAAVVLHEQLAWFHLVGGLLTLGGVILSERWTTVLGPLAGKPASAGQR” it is “failed”.

For the sequence “MQYGAIVVTFNRKQLLIESITALLNQTVPPAKIIIIDNHSTDGTKAELQTADILANPSVDYRYLTKNIGGAGGFARGMQIAAADPNLDWASMSDDDAIFEPDYFEKLIAYQQDHPNRQILTGSVYIEDGRLQADQRNRFTNWSTFQAQAVPEREYRGNFEFDQYTFCGVFMSVAVIKQVGVADAGYFIWWDDCEYAVRTAKLSRPVNVSAAKLIHKTALPSLDFKSKFVPDWRLYYGQRNRLITIKRWRANSLVSLGWLLGFYARLAIQLCGPFYRGYRKMVIRVYLEALRDASREREGLNPNFMPGQKFLEHHHHHH”, the protein production result is given as “not failed”. Turning to “MQYLIVKYSHQIFVTITILVFNIRFFLLWKNPEKPLVGFWKALPHLNDTMLLFTGLWLMKITHFSPFNAPWLGTKILLLFAYIALGMVMMRARPRSTKFYTVYLLAMCCIACIVYLAKTKVLPF”, the protein production entry is listed as “failed”. The entry for “MQYPPRLGFGTWQAPPEAVQTAVETALMTGYRHIDCAYVYQNEEAIGRAFGKIFKDASSGIKREDVWITSKLWNYNHRPELVREQCKKTMSDLQVDYLDLFLVHWPLAFVRNDVGDLFPKDAEGRAMLEKVPLADTWRAMEQLVEEGLVKHIGVSNYTVPLLADLLNYAKIKPLVNQIEIHPWHPNDATVKFCLDNGIGVTAYSPMGGSYADPRDPSGTQKNVILECKTLKAIADAKGTSPHCVALAWHVKKWNTSMYSVIPKSQTPARIEANFKCTEVQLSDDDMDAINNIHLNKRIRFCDPAIFWKVPLFD” is “not failed”.

Consider “MQYVMSIIGILVVLGLCFALSNNKSKINFRAIAIMIGFQILIGWFMFGTKIGQQIIIFIGKVFNKLIKLGTTGVDFLFNGIQRDFVFFLNVLLIIVFFSALLSIFSYLGVLPFIVRVVGGAISKITGLPRVESFHAVNSVFFGSSEALIVIKNDLQHFNKNRMFIICCSAMSSVSASVTASYVMMLDAKYVLAALPLNLFSSLIVCSLLTPVDTKKEDEVIQKFDRTLFGDSFIGAMINGALDGLKVAGIVAALMIAFIGVMEVVNYVISAASGAMGHAVTLQQIFGYVLAPFAFLMGIPAQDIIPAGGIMGTKIVLNEFVAILDLKGVAATLSPRTVGIVTVFLISFASISQIGAIVGTIRALSEKQGSVVSKFGWKMLFASTLASILSATIAGLFI”, for which the protein production result was “failed”.

Take “MRADALKRREHIITTTCNLYRTHHHDSLTMENIAEQAGVGVATLYRNFPDRFTLDMACAQYLFNVVISLQLQAISTFPTDPEGVWTSFNQLLFDRGLGSLVPALAPESLDDLPDEVSALRRTTEKNTTTLINLAKQHGLVHHDIAPGTYIVGLITISRPPITALATISENSHKALLGLYLSGLKHGMMANIGEHDGKS”: the protein production entry is recorded as “not failed”. The entry for “MRADTRDFRALFLGDAPLLDTRAPVEFAKGAFPGAVNLPLMSDAERHKVGLCYKQQGQDAAIALGHRLVSGAVKAERVAAWAAFAQAHPEGYLYCFRGGLRSQISQAWLREEAGIAYPRVIGGYKAMRGFLLETIEQAIAEC” is “failed”; for “MRAFLRVVETGNFTRASASLNMPKATVTNLIQGLEAHLRTKLLNRTTRRVLVTPDGALYYERAARLLSDLDELDGSLSTAQSLPKGRLRVETASAFANLVIIPALPEFHKKYPDIQIDLGVSDRTIDYLAENVDCAIRAGTLTDQSLIARRITEMKFVACASRDFLERHPVPQHPSDLEKNCYVVGYFLPKTGQQMPFHFRRGNEEIEVSGRYTVAANESTTYLAAARAGLGVIQAPLFMVREDLRNGTMVPVLPDWQVEPMPIYLVYPPNRHLSSRLRVFADWVVKVMAQSQNGE” it is “not failed”; for “MRAFYSTTEEISALFAKQQEQLKTMQRTLEDEDNCDNTSLDIDLNPINRSPNRANTQGDKRATSHLNFAARASSSTSGQRSTRNEVVDTSCEDADATQKHDCEIMSQEGQNTQEAEYPSSDKVAKGGFGSDIEGIGTAPTSGTDPVGTEQVNETQSPGNDYERNDHLRKSIILAGDTMQIDCETQVHESVQIEGAVLLLRNPNDRRDTQDIEGVGTIGTSDLLASEVAGSWANSTNPSVHGENETERSREDEESQTQKIKEVTIVQDSAGQIGESQTKPTSPGVLVTNKDDAERGVINEPVGITDQGKIKHGTRSDSETESCSDSDDDHEKEKHNPVSDSDTEGSDMNDDKGSLSSDPDTERSHEVDGDQKKQVDTMDEDDKAT” it is “failed”.

On to “MRAGDGKIRVPADLDAVTATGEEDHSEIDGAAVDRIWRAARHWYRAGMHPAIQLCIRHHGRVVLNRAIGHGWGNAPTDEADAEKIPVTTDTPFCVYSAAKAITATVVHMLVERGHFALDDRVCEYLPSYTSHGKHRTTIRHVLTHSAGVPFPTGPRPDVRRADDHEYAVERLGELRPLYRPGLVHIYHALTWGPLMREIVYAATGKEIREILATEILDPLGFRWTNFGVAERDVPLVAPSHATGRQLPPVIAAVFRKAIGGTVHEIIPYTNTPFFLSTILPSSNTVSTANELSRFMEILRRGGELDGVRVLSPETLRGAVTECRRLRPDFATGLMPLRWGTGFMLGSAKYGPFGRNAPAAFGHLGLVNIAVWADPERALSGGLISSGKPGRDPEAGRYGALLNAITAEIPRASSG”, for which the protein production entry is “failed”.
